System: Nc1nc2c(ncn2[C@@H]2O[C@H](COP(=O)(O)O)[C@@H](O)[C@H]2O)c(=O)[nH]1
Assay: Michaelis-Menten kinetics of guanylate kinase activity
Format: biochemical, murine
Settings: other: Table X
Source text: . […] Table X Kinetic Analysis of Fusion Proteins

Chain of murine guanylate kinase (gmk), wild-type (Mus musculus) (chain, as listed by the source): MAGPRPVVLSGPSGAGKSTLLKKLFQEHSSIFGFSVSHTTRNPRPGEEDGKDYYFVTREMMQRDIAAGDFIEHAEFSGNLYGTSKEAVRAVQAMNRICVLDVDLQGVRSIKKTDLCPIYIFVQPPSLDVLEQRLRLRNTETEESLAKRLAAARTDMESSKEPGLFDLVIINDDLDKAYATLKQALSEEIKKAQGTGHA

## murine guanylate kinase (gmk), wild-type (Mus musculus)
  Km: 25 µM

Source: patent EP1914304A1
